Consider one substance from patent publication US20020137076.

The series concerns the target RNase A (UniProt P61823). Put plainly: inhibition.
Chain of UniProt P61823 (P61823 27-150): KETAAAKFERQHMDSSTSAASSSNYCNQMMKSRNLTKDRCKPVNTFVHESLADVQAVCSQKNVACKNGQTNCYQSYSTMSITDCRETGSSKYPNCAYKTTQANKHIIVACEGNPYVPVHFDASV

As for polyG, the inhibition constant (Ki) is 10 nM (2 ug/ml polyG, polyC substrate, 100 mM MES, 100 mM NaCl pH 6.0, non-competitive); 87.3 nM (20 ug/ml polyG, polyC substrate, 100 mM MES, 100 mM NaCl pH 6.0, non-competitive); 40 nM (Dixon, 40 mM Tris-HCl pH 7.9, 6 mM MgCl2, 10 mM NaCl, 2 mM spermidine); 10 nM (Dixon, 40 mM Tris-HCl pH 7.9, 6 mM MgCl2, 10 mM NaCl, no spermidine).
